This note sets out measurements from US20190016826A1 (Genentech, published 2019).

Positions count from the first letter of the chain named.

The target in assay [1] is T1, Protease domain of human HtrA1 (HuHtrA1_PD), residues D161-K379 (human, UniProt F1N152 168-386 (bovine entry)).
T1 construct: Expressed in E. coli; not shown: thrombin cleavage site between tag and D161
Nature of the assay: SPR (BIAcore T100), single-cycle kinetics, biotinylated HuHtrA1_PD captured on streptavidin, Fab in solution. How it is done:
Briefly, series S sensor chip CM5 was activated with EDC and NHS reagents according to the supplier's instructions, and streptavidin (Pierce) was coupled to achieve approximately 2000 response units (RU), followed by blocking unreacted groups with 1M ethanolamine.
The sensorgrams were recorded and evaluated by BIAcore™ T100 Evaluation Software (version 2.0) after subtraction of reference cell signal. Association rates (kₒₙ) and dissociation rates (koff) were calculated using a simple one-to-one Langmuir binding model. The equilibrium dissociation constant (KD) was calculated as the ratio […] (see Table 1 below).
(In SPR one partner is held on a chip, and binding of the other changes the refractive index at the surface.)

The target in a further assay is T2, HuHtrA1_PD(H220A) (human, UniProt F1N152 168-386 (bovine entry)).
T2 construct: Alanine mutant of HuHtrA1_PD; also called HuHtrA1 mutant H220A; not shown: thrombin cleavage site
T2 chain: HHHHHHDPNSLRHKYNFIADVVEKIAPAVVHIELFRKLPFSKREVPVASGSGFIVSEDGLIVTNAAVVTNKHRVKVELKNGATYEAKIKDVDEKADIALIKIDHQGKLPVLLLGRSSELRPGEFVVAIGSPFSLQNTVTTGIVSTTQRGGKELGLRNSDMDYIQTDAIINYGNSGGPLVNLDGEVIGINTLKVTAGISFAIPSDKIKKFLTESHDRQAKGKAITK
Nature of the assay: ELISA on plate-coated HuHtrA1_PD mutants (Example 7); column head on the sheet reads YW505.94 Fab, legend paragraph 70 says IgG94. How it is done: (§1) The mutants were expressed in E. coli and the trimers purified by size exclusion chromatography as described in Example 2. Binding was determined using an ELISA assay, which was conducted using a MAXISORP™ microtiter plate coated with HuHtrA1_PD mutants at 2 μg/ml in PBS for 1 h, followed by blocking with PBST buffer (0.5% BSA and 0.05% Tween 20 in PBS) for 1 h at room temperature. […] The plates were washed with PBT buffer (0.05% Tween 20 in PBS), and HRP-conjugated goat anti-human IgG (H+L) (Invitrogen) was added (1:5000 in PBST buffer) and incubated for 1 h. The plates were washed with PBT buffer and developed by adding tetramethylbenzidine substrate (Kirkegaard and Perry Laboratories, Gaithersburg, Md.). The absorbance at 450 nm was plotted as a function of antibody concentration in solution to determine EC₅₀ values.
(§2) In trypsin-like serine proteases these loops are known to be part of the specificity determining region that interacts with substrates.
(ELISA stands for enzyme-linked immunosorbent assay.)

A further assay has as its target T3, D244A.
T3 construct: also called HuHtrA1_PD(D244A)
Described as above. How it is done: as §1, §2

A further assay deals with T4, HuHtrA1_PD(T223A) (human, UniProt F1N152 168-386 (bovine entry)).
T4 construct: Alanine mutant of HuHtrA1_PD; also called HuHtrA1 mutant T223A; not shown: thrombin cleavage site
T4 chain: T2 chain with A66H, T69A
The assay is described as above. How it is done:
as §1, §2

Another assay has as its target T5, K241A.
T5 construct: also called HuHtrA1_PD(K241A)
Described as above. How it is done:
as §1, §2

For a further assay, the target named is T6, Y325A.
T6 construct: also called HuHtrA1_PD(Y325A)
Described as above. How it is done:
as §1, §2

For the next assay, the target named is T7, K191A.
T7 construct: also called HuHtrA1_PD(K191A)
The assay is described as above. How it is done:
as §1, §2

A further assay deals with T8, HuHtrA1_PD(K225A) (human, UniProt F1N152 168-386 (bovine entry)).
T8 construct: Alanine mutant of HuHtrA1_PD; also called HuHtrA1 mutant K225A; not shown: thrombin cleavage site
T8 chain: T2 chain with A66H, K71A
The description is as above. How it is done: as §1, §2

Assay [2] has as its target T9, HuHtrA1_PD(S328A), catalytically inactive protease domain of human HtrA1 (human, UniProt F1N152 168-386 (bovine entry)).
T9 construct: Trimer; not shown: thrombin cleavage site
T9 chain: T2 chain with A66H, S174A
The assay is described as above. How it is done:
as §1, §2

B1: Fab94 (anti-HtrA1 antibody YW505.94, Fab format) (Fab, V domains shown)
VH: EVQLVESGGGLVQPGGSLRLSCAASGFNISGYYIHWVRQAPGKGLEWVGWIDPYGGDTNYADSVKGRFTISADTSKNTAYLQMNSLRAEDTAVYYCARGTFLTSWGHYFDYWGQGT
VL: DIQMTQSPSSLSASVGDRVTITCRASQDVSTAVAWYQQKPGKAPKLLIYSASFLYSGVPSRFSGSGSGTDFTLTISSLQPEDFATYYCQQSYTTPPTFGQGTKVEIKR
As usually defined, the Kd is the free concentration of one partner at which half of the binding sites on the other are occupied at equilibrium, for simple one-to-one binding. Low values mean a tighter complex, high ones a looser complex. In general, koff refers to the rate constant with which the complex falls apart. Lower therefore signals slow dissociation. As a reminder, the kon is a measure of how fast the partners come together. Higher therefore signals fast association. In general, EC50 refers to the concentration needed to bring the measured effect to its halfway point. Read a low EC50 as greater potency. B1 showed a dissociation constant (Kd) in assay [1] of 31.1 nM. In assay [1], this molecule registered a koff of 0.0109 s⁻¹. Also, the on-rate (kon) in assay [1] worked out at 350000 M⁻¹ s⁻¹. Also, the EC50 with HuHtrA1_PD(H220A) worked out at 32 nM; in the assay with D244A, 4.7 nM; with HuHtrA1_PD(T223A) it was 62.9 nM; with K241A, 23 nM; with Y325A it was 7.7 nM; with K191A, 14 nM. The results for the 50% effective concentration (EC50) (with HuHtrA1_PD(K225A); in assay [2]) were 52.2 nM and 2.3 nM, respectively. For the same molecule, the “Relative to WT EC50 Fold Decrease” value in the assay with HuHtrA1_PD(H220A) worked out at 5.7 fold; with D244A, 0.8 fold; with HuHtrA1_PD(T223A), 11.2 fold; with K241A it was 4.1 fold; with Y325A, 1.4 fold; with K191A it was 2.5 fold. Besides, the figures for the “Relative to WT EC50 Fold Decrease” value (with HuHtrA1_PD(K225A); in assay [2]) were 9.3 fold and 0.4 fold, respectively.
